Measurements published in patent US11267875B2, “Humanized anti-DKK2 antibody and uses thereof” (YALE UNIVERSITY, priority 2015, dated 2022).

Test system: NK-92MI cells
Assay: Granzyme B expression in human NK cell line NK92 by flow cytometry
Type: cell-based
Conditions: recombinant proteins 200 ng/ml, 24 hours
Experimental: Recombinant Wnt5a and DKK2 (200 ng/ml) were added to NK-92MI cells for 24 hours and Granzyme B contents were analyzed by flow cytometry.
Human NK cell line NK-92 and primary mouse NK cells from spleens and MC38-grafted tumors were tested for their expression of Granzyme and cytotoxic activity in the presence or absence of recombinant proteins of DKK2, Wnt3a, Wnt5a and DKK1, and in the presence or absence of Wnt inhibitors (including LGK-974) and GSK inhibitors (including CHIR 99021). In this manner, the regulation of NK cell activation by DKK2 and Wnt was assessed.

B1: Wnt5a: recombinant Wnt5a protein added to NK-92MI cells (protein, UniProt P41221 62-380, looked up)
Protein Wnt-5a: IIGAQPLCSQLAGLSQGQKKLCHLYQDHMQYIGEGAKTGIKECQYQFRHRRWNCSTVDNTSVFGRVMQIGSRETAFTYAVSAAGVVNAMSRACREGELSTCGCSRAARPKDLPRDWLWGGCGDNIDYGYRFAKEFVDARERERIHAKGSYESARILMNLHNNEAGRRTVYNLADVACKCHGVSGSCSLKTCWLQLADFRKVGDALKEKYDSAAAMRLNSRGKLVQVNSRFNSPTTQDLVYIDPSPDYCVRNESTGSLGTQGRLCNKTSEGMDGCELMCCGRGYDQFKTVQTERCHCKFHWCCYVKCKKCTEIVDQFVCK
- Granzyme B expression: inhibited Granzyme B expression

B2: DKK2: recombinant DKK2 protein added to NK-92MI cells (protein)
chain: KLNSIKSSLGGETPGQAANRSAGMYQGLAFGGSKKGKNLGQAYPCSSDKECEVGRYCHSPHQGSSACMVCRRKKKRCHRDGMCCPSTRCNNGICIPVTESILTPHIPALDGTRHRDRNHGHYSNHDLGWQNLGRPHTKMSHIKGHEGDPCLRSSDCIEGFCCARHFWTKICKPVLHQGEVCTKQRKKGSHGLEIFQRCDCAKGLSCKVWKDATYSSKARLHVCQKI
- Granzyme B expression: inhibited Granzyme B expression
